Literature values as cited in paper PMC4865444.

Assays:
[1] = biological target: Nef SF2 (Human immunodeficiency virus 1) (UniProt P03407)
[2] = biological target: Nef NL4-3 (Human immunodeficiency virus 1) (UniProt P04324)

Sequence of UniProt P03407 (P03407 2-210): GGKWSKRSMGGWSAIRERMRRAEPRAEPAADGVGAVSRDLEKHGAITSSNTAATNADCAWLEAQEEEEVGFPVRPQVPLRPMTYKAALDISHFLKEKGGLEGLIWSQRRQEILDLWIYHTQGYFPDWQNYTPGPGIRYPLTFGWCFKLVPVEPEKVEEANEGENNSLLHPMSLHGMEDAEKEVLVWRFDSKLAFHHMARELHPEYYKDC

For Hck SH3 (from UniProt P08631), the Kd [1] is given as 0.64 µM and the Kd [2] is given as 1.4 µM.
